Measured values published in patent publication US20110014669A1, “Production of 1,4 Butanediol in a Microorganism” (Microbia, Inc., priority 2009, published 2011).

What was measured:
[1] = tested on: L-glutamate 5-semialdehyde (GSA); assay: Enzyme assay, oxidoreductase (step A3), cell lysates; assay type: biochemical; design: key: +: measureable activity detected in the assay; −: no measurable activity detected in the assay; settings: BDO biosynthetic pathway step A3
Description: (§1) Enzyme expression and crude lysate preparation. The enzymatic activity of each candidate enzyme is evaluated, first in E. coli and subsequently in C. glutamicum. It will be apparent to one of skill in the art that the expression and lysate preparations may need to be modified depending on the host cell and recombinant gene of interest.
(§2) E. coli: E. coli strains transformed with expression clones, for example, pUC18 or MB4124 based clones having a medium strong constitutive promoter regulating the recombinant gene of interest, are grown aerobically in LB medium (Difco) containing the appropriate antibiotic(s). At an OD600 of 0.5, IPTG is added to a final concentration of 0.25 mM. The cultures are grown to a final OD600 of 1.5 at which time the cells are collected and harvested by centrifugation. Cell pellets are resuspended in BugBuster (Novagen) reagent containing benzonase and lysozyme. Alternatively, E. coli strains transformed with expression clones, are grown overnight aerobically at 37° C. in BHI containing the appropriate antibiotic(s). 300 μL of fresh overnight culture is used to inoculate 2.7 mL BHI containing 0.25 mM IPTG and the appropriate antibiotic. The cultures are grown aerobically for 4-5 hours at 37° C. at which time the cells are collected and harvested by centrifugation. Cell pellets are frozen at −80° C. for at least 15 minutes, then thawed and resuspended in BugBuster (Novagen) reagent. Lysis and lysate collection are performed according to the manufacturer's instructions and, for example, may involve use of a sonicator and/or French press. Cleared lysates are stored on ice until enzyme assays are performed.
C. glutamicum: C. glutamicum strains transformed with MB4124 expression clones containing the recombinant gene of interest are grown aerobically in BHI broth supplemented with the proper antibiotic(s). At an OD600 of 0.5, IPTG is added to a final concentration of 0.25 mM. The cultures are grown to a final OD600 of 1.5 at which time the cells are collected and harvested by centrifugation. The pellet is washed once in one volume of water and resuspended in lysis buffer (1.0 ml 1.0 M HEPES buffer, pH 7.5, 0.5 ml 1M KOH, 10 μl 0.5M EDTA, protease inhibitor cocktail, water to 5 ml; the final pH will vary depending on the individual enzyme being tested) and one volume of 0.1 mm acid washed glass beads. The mixture is repeatedly alternately vortexed and held on ice for 15 seconds, eight times. After centrifugation for 5 min at 4,000 rpm, the supernatant lysate is removed and respun for 20 min at 10,000 rpm. Alternatively, C. glutamicum strains transformed with MB4124 expression clones containing the recombinant gene of interest are grown aerobically overnight in BHI broth supplemented with the proper antibiotic(s). Five mL of fresh overnight culture is used to inoculate 200 mL BHI containing 0.25 mM IPTG and the appropriate antibiotic. The cultures are grown aerobically at 30° C. for 5-7 hours at which time the cells are collected and harvested by centrifugation at 4° C. The pellet is resuspended in 15 mL ice cold 39 mM KH2PO4, 61 mM K2HPO4, 0.5 M KCl and lysed using a BioSpec BeadBeater and following the manufacturer's instructions. […]
Protein Assays. Protein concentrations in lysates are determined according to the methods of Bradford et al. (Anal. Biochem. 72:248-254 [1976]) or by the method of Smith et al. (Anal. Biochem. 150(1):76-85 [1985]) and lysates are assayed according to the methods below. […]

[2] = tested on: 5-hydroxy-2-oxopentanoate; assay: Enzyme assay, decarboxylase (step A5), aldehyde dehydrogenase linked reaction; assay type: biochemical; design: key: +: measureable activity detected in the assay; −: no measurable activity detected in the assay; settings: BDO biosynthetic pathway step A5
Description: as §1, §2
C. glutamicum: C. glutamicum strains transformed with MB4124 expression clones containing the recombinant gene of interest are grown aerobically in BHI broth supplemented with the proper antibiotic(s). At an OD600 of 0.5, IPTG is added to a final concentration of 0.25 mM. The cultures are grown to a final OD600 of 1.5 at which time the cells are collected and harvested by centrifugation. The pellet is washed once in one volume of water and resuspended in lysis buffer (1.0 ml 1.0 M HEPES buffer, pH 7.5, 0.5 ml 1M KOH, 10 μl 0.5M EDTA, protease inhibitor cocktail, water to 5 ml; the final pH will vary depending on the individual enzyme being tested) and one volume of 0.1 mm acid washed glass beads. The mixture is repeatedly alternately vortexed and held on ice for 15 seconds, eight times. After centrifugation for 5 min at 4,000 rpm, the supernatant lysate is removed and respun for 20 min at 10,000 rpm. Alternatively, C. glutamicum strains transformed with MB4124 expression clones containing the recombinant gene of interest are grown aerobically overnight in BHI broth supplemented with the proper antibiotic(s). Five mL of fresh overnight culture is used to inoculate 200 mL BHI containing 0.25 mM IPTG and the appropriate antibiotic. The cultures are grown aerobically at 30° C. for 5-7 hours at which time the cells are collected and harvested by centrifugation at 4° C. The pellet is resuspended in 15 mL ice cold 39 mM KH2PO4, 61 mM K2HPO4, 0.5 M KCl and lysed using a BioSpec BeadBeater and following the manufacturer's instructions. The lysate is centrifuged at 16,000 RPM at 4° C. for 30 minutes and the supernatant retained on ice as the extract.
Protein Assays. Protein concentrations in lysates are determined according to the methods of Bradford et al. (Anal. Biochem. 72:248-254 [1976]) or by the method of Smith et al. (Anal. Biochem. 150(1):76-85 [1985]) and lysates are assayed according to the methods below.
Enzyme Assays. Enzyme assays are performed on the cell lysates prepared above. The activity for each recombinant enzyme is compared to a lysate from a vector only control culture which is generated in a fashion identical to the recombinant enzyme lysate. […]

Molecule | Enzyme Assay [1] | Enzyme Assay [2]
HomCg: Enzyme candidate for BDO biosynthetic pathway step A3, SEQ ID NO. 22 (protein, listed as Corynebacterium glutamicum) MTSASAPSFNPGKGPGSAVGIALLGFGTVGTEVMRLMTEYGDELAHRIGGPLEVRGIAVSDISKPREGVAPELLTEDAFALIEREDVDIVVEVIGGIEYPREVVLAALKAGKSVVTANKALVAAHSAELADAAEAANVDLYFEAAVAGAIPVVGPLRRSLAGDQIQSVMGIVNGTTNFILDAMDSTGADYADSLAEATRLGYAEADPTADVEGHDAASKAAILASIAFHTRVTADDVYCEGISNISAADIEAAQQAGHTIKLLAICEKFTNKEGKSAISARVHPTLLPVSHPLASVNKSFNAIFVEAEAAGRLMFYGNGAGGAPTASAVLGDVVGAARNKVHGGRAPGESTYANLPIADFGETTTRYHLDMDVEDRVGVLAELASLFSEQGISLRTIRQEERDDDARLIVVTHSALESDLSRTVELLKAKPVVKAINSVIRLERD | − | 
HomAu: Enzyme candidate for BDO biosynthetic pathway step A3, SEQ ID NO. 24 (protein, listed as Arthrobacter aurescens) MSEMRTLKVALLGCGNVGAQVARILIDDAEALAARSGARLELSGIAVRNVDSPRDVELPRELFTTDADTLVKDADLVIELMGGIEPARSLILTAIQNGACVVTGNKALLAQDGPTLYEEADKAGVQLSYEAAVAGAIPILRPIRDSLSGDRITRVLGIVNGTTNFILDQMDSTGAQFADALAEAQRLGYAEADPTADVEGHDAAAKAAILASLSFHTRFSLDDVYCEGITKVSAADIASAKEAGFVIKLLAIAEKIDSSDNGSGISVRVHPTLLPREHPLAAVRGAFNAVFIEAENAGELMFYGQGAGGTPTASAVLGDLVSAARRLVLGGPGRTETTTGHVPALAIDASNTSYYIGLDVADQAGVLARIAHIFAENGVSIEIMRQTIHRDSASNVESAELKIVTHRASEAALAATVEAVKGLDVINSVTSVLRVEGV | − | 
LysAEc: Enzyme candidate for BDO biosynthetic pathway step A5, SEQ ID NO. 66 (protein, listed as Escherichia coli) MPHSLFSTDTDLTAENLLRLPAEFGCPVWVYDAQIIRRQIAALKQFDVVRFAQKACSNIHILRLMREQGVKVDSVSLGEIERALAAGYNPQTHPDDIVFTADVIDQATLERVSELQIPVNAGSVDMLDQLGQVSPGHRVWLRVNPGFGHGHSQKTNTGGENSKHGIWYTDLPAALDVIQRHHLQLVGIHMHIGSGVDYAHLEQVCGAMVRQVIEFGQDLQAISAGGGLSVPYQQGEEAVDTEHYYGLWNAAREQIARHLGHPVKLEIEPGRFLVAQSGVLITQVRSVKQMGSRHFVLVDAGFNDLMRPAMYGSYHHISALAADGRSLEHAPTVETVVAGPLCESGDVFTQQEGGNVETRALPEVKAGDYLVLHDTGAYGASMSSNYNSRPLLPEVLFDNGQARLIRRRQTIEELLALELL |  | −
YiaQEc: Enzyme candidate for BDO biosynthetic pathway step A5, SEQ ID NO. 67 (protein, listed as Escherichia coli) MSRPLLQLALDHSSLEAAQRDVTLLKDSVDIVEAGTILCLNEGLGAVKALREQCPDKIIVADWKVADAGETLAQQAFGAGANWMTIICAAPLATVEKGHAMAQRCGGEIQIELFGNWTLDDARDWHRIGVRQAIYHRGRDAQASGQQWGEADLARMKALSDIGLELSITGGITPADLPLFKDIRVKAFIAGRALAGAANPAQVAGDFHAQIDAIWGGARA |  | −
UlaDEc: Enzyme candidate for BDO biosynthetic pathway step A5, SEQ ID NO. 68 (protein, listed as Escherichia coli) MSLPMLQVALDNQTMDSAYETTRLIAEEVDIIEVGTILCVGEGVRAVRDLKALYPHKIVLADAKIADAGKILSRMCFEANADWVTVICCADINTAKGALDVAKEFNGDVQIELTGYWTWEQAQQWRDAGIGQVVYHRSRDAQAAGVAWGEADITAIKRLSDMGFKVTVTGGLALEDLPLFKGIPIHVFIAGRSIRDAASPVEAARQFKRSIAELWG |  | −
KgdMs: Enzyme candidate for BDO biosynthetic pathway step A5, SEQ ID NO. 69 (protein, listed as Mycobacterium smegmatis) MSSSPSPFGQNEWLVEEMYRKFRDDPSSVDPSWHEFLVDYSPEPTTDSASNGRTTTAAPVTPPTPAPAPAPEPKAAPKPAAKTEAKPAKPAKSATPAKGDESQILRGAAAAVVKNMNASLEVPTATSVRAIPAKLMIDNRVVINNHLKRTRGGKISFTHLLGYAIVQAVKKFPNMNRHFAVVDGKPTAITPAHTNLGLAIDLQGKDGNRSLVVAAIKRCETMRFGQFIAAYEDIVRRARDGKLTAEDFSGVTISLTNPGTLGTVHSVPRLMQGQGAIIGAGAMEYPAEFQGASEERIADLGIGKLITLTSTYDHRIIQGAESGDFLRTIHQLLLDDDFFDEIFRELGIPYEPVRWRTDNPDSIEDKNARVIELIAAYRNRGHLMADIDPLRLDNTRFRSHPDLDVNSHGLTLWDLDREFKVDGFAGVQRKKLRDILSVLRDAYCRHVGVEYTHILEPEQQRWIQERVETKHDKPTVAEQKYILSKLNAAEAFETFLQTKYVGQKRFSLEGAETVIPMMDAVIDQCAEHGLDEVVIAMPHRGRLNVLANIVGKPYSQIFSEFEGNLNPSQAHGSGDVKYHLGATGTYIQMFGDNDIEVSLTANPSHLEAVDPVLEGLVRAKQDLLDTGEEGSDNRFSVVPLMLHGDAAFAGQGVVAETLNLALLRGYRTGGTIHIVVNNQIGFTTAPTDSRSSEYCTDVAKMIGAPIFHVNGDDPEACAWVARLAVDFRQAFKKDVVIDMLCYRRRGHNEGDDPSMTQPYMYDVIDTKRGSRKAYTEALIGRGDISMKEAEDALRDYQGQLERVFNEVRELEKHEIEPSESVEADQQIPSKLATAVDKAMLQRIGDAHLALPEGFTVHPRVRPVLEKRREMAYEGRIDWAFAELLALGSLIAEGKLVRLSGQDTQRGTFTQRHAVIVDRKTGEEFTPLQLLATNPDGTPTGGKFLVYNSALSEFAAVGFEYGYSVGNPDAMVLWEAQFGDFVNGAQSIIDEFISSGEAKWGQLSDVVLLLPHGHEGQGPDHTSGRIERFLQLWAEGSMTIAMPSTPANYFHLLRRHGKDGIQRPLIVFTPKSMLRNKAAVSDIRDFTESKFRSVLEEPMYTDGEGDRNKVTRLLLTSGKIYYELAARKAKENREDVAIVRIEQLAPLPRRRLAETLDRYPNVKEKFWVQEEPANQGAWPSFGLTLPEILPDHFTGLKRISRRAMSAPSSGSSKVHAVEQQEILDTAFG |  | −
ARO10Sc: Enzyme candidate for BDO biosynthetic pathway step A5, SEQ ID NO. 70 (protein, listed as Saccharomyces cerevisiae) MAPVTIEKFVNQEERHLVSNRSATIPFGEYIFKRLLSIDTKSVFGVPGDFNLSLLEYLYSPSVESAGLRWVGTCNELNAAYAADGYSRYSNKIGCLITTYGVGELSALNGIAGSFAENVKVLHIVGVAKSIDSRSSNFSDRNLHHLVPQLHDSNFKGPNHKVYHDMVKDRVACSVAYLEDIETACDQVDNVIRDIYKYSKPGYIFVPADFADMSVTCDNLVNVPRISQQDCIVYPSENQLSDIINKITSWIYSSKTPAILGDVLTDRYGVSNFLNKLICKTGIWNFSTVMGKSVIDESNPTYMGQYNGKEGLKQVYEHFELCDLVLHFGVDINEINNGHYTFTYKPNAKIIQFHPNYIRLVDTRQGNEQMFKGINFAPILKELYKRIDVSKLSLQYDSNVTQYTNETMRLEDPTNGQSSIITQVHLQKTMPKFLNPGDVVVCETGSFQFSVRDFAFPSQLKYISQGFFLSIGMALPAALGVGIAMQDHSNAHINGGNVKEDYKPRLILFEGDGAAQMTIQELSTILKCNIPLEVIIWNNNGYTIERAIMGPTRSYNDVMSWKWTKLFEAFGDFDGKYTNSTLIQCPSKLALKLEELKNSNKRSGIELLEVKLGELDFPEQLKCMVEAAALKRNKK |  | −
